Experimental findings from the supplement of paper PMC7125110 are described below.

B1: glmS ribozyme (parent)
chain: AUAAAAGCGCCAGAACUACAGAAAUGUAGUUGACGAGGAGGAGGUUUAUCGAAUUUUCGGCGGAUGCCUCCAAA

Common to all, as to conditions: with glucosamine-6-phosphate
In series [1] the parent is B1. Nature of the series: kcat; higher = faster cleavage; RNA array. The method in brief: (§1)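 The measurements used barcoded ribozyme variants on sequenced MiSeq chips, transcribed in situ by E. coli RNA polymerase and tracked at 37 °C with a hybridised Cy3 probe. Glucosamine-6-phosphate, 40 μM to 10 mM in HEPES/KCl/Mg(OAc)2 buffer, was flowed in while tiles were imaged over ~14 h. Baseline-normalised signals, also normalised to non-cleaving reference variants, gave per-tile medians that were fit to one- or two-exponential decays for kobs. kcat and KM resulted from weighted Michaelis–Menten fits across concentrations.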

In series [2] the parent is B1. Nature of the series: KM; higher = weaker cofactor use; RNA array. The method in brief: as §1
Variants of B1 are the subject of series [3]. The experiment in a line: self-cleavage kobs at 40 uM GlcN6P; higher = faster cleavage; RNA array. The method in brief: as §1
Variants of B1 are the subject of series [4]. The experiment in a line: self-cleavage kobs at 160 uM GlcN6P; higher = faster cleavage; RNA array. The essentials: as §1
In series [5] the parent is B1. Nature of the series: self-cleavage kobs at 2500 uM GlcN6P; higher = faster cleavage; RNA array. The method in brief: as §1
Series [6] covers variants of B1. Nature of the series: self-cleavage kobs at 10000 uM GlcN6P; higher = faster cleavage; RNA array. The method in brief:
as §1

Series [7] covers variants of B1. The experiment in a line: self-cleavage kobs at 640 uM GlcN6P; higher = faster cleavage; RNA array. The essentials: as §1

± gives the standard error. For some assays here: Variants at the floor of the assay were thinned out.

The kcat is the maximal rate divided by the concentration of active sites. The term KM denotes the concentration of substrate that gives half-maximal velocity. U31A A42G: the kcat with glucosamine-6-phosphate [1] worked out at 0.0179 ± 0.0037 s⁻¹. The Michaelis-Menten constant (KM) with glucosamine-6-phosphate [2] stood at 1430 ± 370 µM. In the series with glucosamine-6-phosphate [3], the “self-cleavage kobs at 40 uM GlcN6P” value came out at 0.000495 ± 7.3e-05 s⁻¹. The “self-cleavage kobs at 160 uM GlcN6P” value with glucosamine-6-phosphate [4] was found to be 0.00191 ± 0.00054 s⁻¹. Further, the “self-cleavage kobs at 2500 uM GlcN6P” value in the series with glucosamine-6-phosphate [5] was determined as 0.00902 ± 0.0026 s⁻¹. Also, the “self-cleavage kobs at 10000 uM GlcN6P” value with glucosamine-6-phosphate [6] is 0.0188 ± 0.0042 s⁻¹.

For the variant C16U G37U G51C, in the series with glucosamine-6-phosphate [1], the turnover number (kcat) was under 1e-05 s⁻¹. Also, the “self-cleavage kobs at 40 uM GlcN6P” value with glucosamine-6-phosphate [3] was under 1e-05 s⁻¹. Moreover, the “self-cleavage kobs at 160 uM GlcN6P” value with glucosamine-6-phosphate [4] was under 1e-05 s⁻¹. The “self-cleavage kobs at 640 uM GlcN6P” value in the series with glucosamine-6-phosphate [7] is under 1e-05 s⁻¹.

With A15U U31A, the kcat with glucosamine-6-phosphate [1] was determined as 0.00127 ± 0.00026 s⁻¹. The KM with glucosamine-6-phosphate [2] was 2230 ± 880 µM. In addition, in the series with glucosamine-6-phosphate [3], the “self-cleavage kobs at 40 uM GlcN6P” value worked out at 3.45e-05 ± 7.5e-06 s⁻¹. Moreover, the “self-cleavage kobs at 160 uM GlcN6P” value with glucosamine-6-phosphate [4] was 4.67e-05 ± 2e-05 s⁻¹. The “self-cleavage kobs at 640 uM GlcN6P” value with glucosamine-6-phosphate [7] is 0.000289 ± 5.3e-05 s⁻¹. In addition, the “self-cleavage kobs at 2500 uM GlcN6P” value in the series with glucosamine-6-phosphate [5] is 0.000874 ± 0.00015 s⁻¹. Moreover, the “self-cleavage kobs at 10000 uM GlcN6P” value in the series with glucosamine-6-phosphate [6] came out at 0.00101 ± 9.8e-05 s⁻¹.

On to A42U U65G C68A, for which the kcat with glucosamine-6-phosphate [1] is 2.17e-05 ± 1.1e-05 s⁻¹. Also, the “self-cleavage kobs at 160 uM GlcN6P” value in the series with glucosamine-6-phosphate [4] was under 1e-05 s⁻¹.

Consider A12U C61A G63C C70U, for which the kcat with glucosamine-6-phosphate [1] came to 3.89e-05 ± 1.1e-05 s⁻¹. The “self-cleavage kobs at 160 uM GlcN6P” value in the series with glucosamine-6-phosphate [4] was 3.45e-05 ± 1.3e-05 s⁻¹. The “self-cleavage kobs at 2500 uM GlcN6P” value with glucosamine-6-phosphate [5] came out at 4.79e-05 ± 1.7e-05 s⁻¹.

For the variant A12C C61A, the kcat with glucosamine-6-phosphate [1] is under 1e-05 s⁻¹. Besides, the “self-cleavage kobs at 10000 uM GlcN6P” value with glucosamine-6-phosphate [6] is under 1e-05 s⁻¹.

Regarding U54G U56A G66A, the kcat with glucosamine-6-phosphate [1] worked out at 0.00395 ± 0.00074 s⁻¹. In addition, the Michaelis-Menten constant (KM) in the series with glucosamine-6-phosphate [2] was determined as 1470 ± 370 µM. The “self-cleavage kobs at 40 uM GlcN6P” value with glucosamine-6-phosphate [3] stood at 0.000108 ± 1.7e-05 s⁻¹. In the series with glucosamine-6-phosphate [4], the “self-cleavage kobs at 160 uM GlcN6P” value was 0.000344 ± 5.5e-05 s⁻¹. Moreover, the “self-cleavage kobs at 640 uM GlcN6P” value with glucosamine-6-phosphate [7] worked out at 0.00162 ± 0.00028 s⁻¹. In the series with glucosamine-6-phosphate [5], the “self-cleavage kobs at 2500 uM GlcN6P” value worked out at 0.00236 ± 0.00049 s⁻¹. Besides, the “self-cleavage kobs at 10000 uM GlcN6P” value with glucosamine-6-phosphate [6] turned out to be 0.00335 ± 0.00067 s⁻¹.

For the variant A53G C58A, the kcat with glucosamine-6-phosphate [1] worked out at 0.000622 ± 7.5e-05 s⁻¹. For the same variant, the KM in the series with glucosamine-6-phosphate [2] worked out at 2190 ± 460 µM. In addition, in the series with glucosamine-6-phosphate [4], the “self-cleavage kobs at 160 uM GlcN6P” value came out at 5.7e-05 ± 1.3e-05 s⁻¹. Besides, in the series with glucosamine-6-phosphate [7], the “self-cleavage kobs at 640 uM GlcN6P” value was determined as 0.000129 ± 1.6e-05 s⁻¹. The “self-cleavage kobs at 2500 uM GlcN6P” value with glucosamine-6-phosphate [5] amounted to 0.00036 ± 4.4e-05 s⁻¹. Further, the “self-cleavage kobs at 10000 uM GlcN6P” value with glucosamine-6-phosphate [6] came out at 0.0005 ± 5.8e-05 s⁻¹.

In the case of U47G U49G, the catalytic constant (kcat) with glucosamine-6-phosphate [1] was found to be 8.66e-05 ± 9.3e-06 s⁻¹. For the same variant, in the series with glucosamine-6-phosphate [6], the “self-cleavage kobs at 10000 uM GlcN6P” value came to 8.15e-05 ± 1.2e-05 s⁻¹.

With G41U U55A, in the series with glucosamine-6-phosphate [1], the catalytic constant (kcat) worked out at 0.000121 ± 2e-05 s⁻¹. In addition, the “self-cleavage kobs at 160 uM GlcN6P” value with glucosamine-6-phosphate [4] was 5.55e-05 ± 1.3e-05 s⁻¹. Also, the “self-cleavage kobs at 640 uM GlcN6P” value with glucosamine-6-phosphate [7] was 0.000132 ± 2e-05 s⁻¹. Also, the “self-cleavage kobs at 2500 uM GlcN6P” value with glucosamine-6-phosphate [5] is 0.000105 ± 3.7e-05 s⁻¹. Moreover, the “self-cleavage kobs at 10000 uM GlcN6P” value with glucosamine-6-phosphate [6] worked out at 0.000105 ± 1.7e-05 s⁻¹.

C11A A52U C67G: in the series with glucosamine-6-phosphate [1], the turnover number (kcat) is 2.85e-05 ± 4.6e-06 s⁻¹.

As to G44A U56G, the turnover number (kcat) in the series with glucosamine-6-phosphate [1] amounted to 0.000224 ± 3.2e-05 s⁻¹. Further, the “self-cleavage kobs at 640 uM GlcN6P” value with glucosamine-6-phosphate [7] is 5.52e-05 ± 2.2e-05 s⁻¹. Moreover, the “self-cleavage kobs at 2500 uM GlcN6P” value in the series with glucosamine-6-phosphate [5] was 0.000188 ± 3.9e-05 s⁻¹. Also, the “self-cleavage kobs at 10000 uM GlcN6P” value with glucosamine-6-phosphate [6] worked out at 0.00019 ± 2.1e-05 s⁻¹.

For the variant A14C G44C C67G, the kcat with glucosamine-6-phosphate [1] turned out to be 0.00155 ± 0.00052 s⁻¹. For the same variant, the “self-cleavage kobs at 40 uM GlcN6P” value with glucosamine-6-phosphate [3] worked out at 3.15e-05 ± 1.2e-05 s⁻¹. In the series with glucosamine-6-phosphate [7], the “self-cleavage kobs at 640 uM GlcN6P” value amounted to 0.000389 ± 0.0001 s⁻¹. The “self-cleavage kobs at 2500 uM GlcN6P” value with glucosamine-6-phosphate [5] was 0.000548 ± 0.00015 s⁻¹. For the same variant, the “self-cleavage kobs at 10000 uM GlcN6P” value with glucosamine-6-phosphate [6] came out at 0.00139 ± 0.00022 s⁻¹.

With U31A G32A, in the series with glucosamine-6-phosphate [1], the catalytic constant (kcat) was 0.00184 ± 0.00083 s⁻¹. The “self-cleavage kobs at 160 uM GlcN6P” value with glucosamine-6-phosphate [4] was 6.66e-05 ± 1.2e-05 s⁻¹. Further, in the series with glucosamine-6-phosphate [7], the “self-cleavage kobs at 640 uM GlcN6P” value came out at 0.000222 ± 3.2e-05 s⁻¹. Moreover, the “self-cleavage kobs at 2500 uM GlcN6P” value in the series with glucosamine-6-phosphate [5] stood at 0.000381 ± 7.7e-05 s⁻¹. The “self-cleavage kobs at 10000 uM GlcN6P” value with glucosamine-6-phosphate [6] turned out to be 0.0014 ± 0.00017 s⁻¹.

Take G29U G32C: the kcat in the series with glucosamine-6-phosphate [1] was 0.000123 ± 3.9e-06 s⁻¹. Also, the Michaelis-Menten constant (KM) with glucosamine-6-phosphate [2] amounted to 2730 ± 250 µM. In the series with glucosamine-6-phosphate [3], the “self-cleavage kobs at 40 uM GlcN6P” value is under 1e-05 s⁻¹. For the same variant, the “self-cleavage kobs at 2500 uM GlcN6P” value with glucosamine-6-phosphate [5] is 5.78e-05 ± 8.5e-06 s⁻¹. The “self-cleavage kobs at 10000 uM GlcN6P” value with glucosamine-6-phosphate [6] stood at 9.71e-05 ± 8.4e-06 s⁻¹.

For C34U G35A C68U, in the series with glucosamine-6-phosphate [1], the catalytic constant (kcat) amounted to 1.41e-05 ± 3.1e-06 s⁻¹.

In the case of G38U G62A, the kcat with glucosamine-6-phosphate [1] was under 1e-05 s⁻¹. Besides, the “self-cleavage kobs at 160 uM GlcN6P” value in the series with glucosamine-6-phosphate [4] was under 1e-05 s⁻¹.

For A14C G44U, the kcat with glucosamine-6-phosphate [1] was 4.6e-05 ± 8.4e-06 s⁻¹. Further, the “self-cleavage kobs at 40 uM GlcN6P” value with glucosamine-6-phosphate [3] is under 1e-05 s⁻¹. In addition, in the series with glucosamine-6-phosphate [5], the “self-cleavage kobs at 2500 uM GlcN6P” value turned out to be 3.7e-05 ± 1.4e-05 s⁻¹. The “self-cleavage kobs at 10000 uM GlcN6P” value with glucosamine-6-phosphate [6] worked out at 3.91e-05 ± 9.8e-06 s⁻¹.
